Columns and labels:
[1] = target: T1, GraR (Staphylococcus aureus Mu50) (UniProt Q932F1); assay: DNase I footprinting; conditions: 10 ng 32P-labelled promoter DNA, buffer, salt, pH and temperature not given (as described previously, ref 17)
T1 sequence: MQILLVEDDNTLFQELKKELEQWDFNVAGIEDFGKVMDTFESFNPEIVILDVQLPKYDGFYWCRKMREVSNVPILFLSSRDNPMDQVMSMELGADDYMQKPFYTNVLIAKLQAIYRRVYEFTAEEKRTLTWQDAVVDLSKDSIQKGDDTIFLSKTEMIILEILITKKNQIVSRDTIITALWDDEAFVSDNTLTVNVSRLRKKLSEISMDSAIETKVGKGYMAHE

[2] = test system: GraR (Staphylococcus aureus Mu50); assay: DNase I footprinting; conditions: 10 ng 32P-labelled promoter DNA, buffer, salt, pH and temperature not given (as described previously, ref 17)
[3] = test system: GraR C (C-terminal DNA-binding domain) (Staphylococcus aureus Mu50); assay: DNase I footprinting; conditions: 10 ng 32P-labelled promoter DNA, buffer, salt, pH and temperature not given (as described previously, ref 17)
[4] = target: T2, GST-BceS, cytoplasmic region of histidine kinase BceS (62-334) fused to GST (B. subtilis strain 168, UniProt O35044 62-334); assay: pull-down; GST-fused bait immobilised on glutathione-sepharose resin in 1 x PBS; prey added at bait:prey ratios of about 1:1 to 1:2, 30 min at room temperature; five to seven washes; elution with 10 mM reduced glutathione in 50 mM Tris pH 8.0; SDS-PAGE; conditions: both partners purified
T2 construct: Histidine kinase BceS (334 amino acids), B. subtilis strain 168, cytoplasmic region, residues 62-334; Cloned in pGEX-4T-1; source: E. coli BL21(DE3), purified (glutathione-sepharose); not shown: GST, N-terminal, kept
T2 sequence: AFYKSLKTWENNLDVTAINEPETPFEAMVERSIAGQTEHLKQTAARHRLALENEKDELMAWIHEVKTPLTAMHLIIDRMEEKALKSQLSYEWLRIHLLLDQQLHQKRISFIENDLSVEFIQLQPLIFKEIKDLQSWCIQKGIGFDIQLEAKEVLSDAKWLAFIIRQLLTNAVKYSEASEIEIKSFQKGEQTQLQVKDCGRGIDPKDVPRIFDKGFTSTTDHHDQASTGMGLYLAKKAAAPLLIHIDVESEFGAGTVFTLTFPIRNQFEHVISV

[5] = target: the molecule itself; assay: SDS-PAGE in the presence and absence of DTT; purified GraX on SDS-PAGE with and without dithiothreitol; data not shown

Q: “GGATCCTTTAGGTTTCATCTAAAATACTCCTTTAAACTGTAACCAAAAAACATATTACTCCACCTTTTAGTTACATATATATTATAATAGTAGCAAATGTTTTAAAATTTCAAAATACTGGAGGCTTTTTATGGCCCATATTATACGTAGAGTTAGTATCAAAGATGTAGAAAATTTCATTTCAATGAATTCCG (double strand) [graSR promoter]” was tested. Which binding [1] did it give?
A: The binding was “no binding”.

Q: What does the source list for PvraFG promoter?
A: Kd [2]: 800 nM; Kd [3]: 2400 nM

B1: BceR, response regulator of Bacillus subtilis (natural protein)
chain: MFKLLLIEDDESLFHEIKDRLTGWSYDVYGIQDFSQVLQEFAAVNPDCVIIDVQLPKFDGFHWCRLIRSRSNVPILFLSSRDHPADMVMSMQLGADDFIQKPFHFDVLIAKIQAMFRRVHHYNTEPSTIKTWCGAAVDAEQNLVSNDKGSVELTKNEMFILKQLIEQKNKIVSREELIRSLWNDERFVSDNTLTVNVNRLRKKLDALQLGAYIETKVGQGYIAKEEDKFYD
notes: Response regulator BceR, B. subtilis strain 168; the bceR gene amplified with primers from the start to the stop codon; no extra amino acids on either terminus; Cloned in pET26b(+), untagged; source: E. coli BL21(DE3), purified (DEAE-Sepharose, heparin-sepharose), up to 90% purity
Q: Does B1 bind [4]?
A: Result: binds

B2: GraX, auxiliary protein (tagless) (natural protein)
chain: MKPKVLLAGGTGYIGKYLSEVIENDAELFAISKYPDNKKTDDVEMTWIQCDIFHYEQVVAAMNQIDIAVFFIDPTKNSAKITQSSARDLTLIAADNFGRAAAINQVKKVIYIPGSRYDNETIERLGAYGTPVETTNLVFKRSLVNVELQVSKYDDVRSTMKVVLPKGWTLKNVVNHFIAWMGYTKGTFVKTEKSHDQFKIYIKNKVRPLAVFKIEETADGIITLILLSGSLVKKYTVNQGKLEFRLIKESAVVYIHLYDYIPRLFWPIYYFIQAPMQKMMIHGFEVDCRIKDFQSRLKSGENMKYTK
notes: Auxiliary protein GraX, S. aureus strain Mu50, full length graX gene; Cloned in pET26b between NdeI and HindIII; Dimers seen by SDS-PAGE without DTT; also called untagged GraX; source: E. coli BL21(DE3), purified (SP-Sepharose cation exchange), to 90%
Q: For B2, which “stoichiometry N” value [5] is on record?
A: Its value is 2.

— article PMC4314665, “Diversity of two-component systems: insights into the signal transduction mechanism by the Staphylococcus aureus two-component system GraSR” (F1000Research, 2014)
